What all share (conditions): one partner purified
Assay [1] concerns the target T1, endothelin A receptor (ETaR) (Homo sapiens (assumed), UniProt P25101).
T1 construct: endothelin A receptor (ETaR), a GPCR; plasmid and cells were gifts from Gmax Biopharm LLC; also called GPCR; ETaR-expressing CHO cells; source: CHO cells stably expressing and displaying ETaR (provided by Gmax Biopharm LLC); on cells, and in vesicles prepared from them
Nature of the assay: flow cytometry on cells; purified scFv-His at 1 to 316 nM on ETaR-expressing CHO cells, 1 h at 4 °C; FITC-conjugated anti-His; Kd from the dose-response curve (GraphPad PRISM 5.0). (In flow cytometry, cells or beads pass a laser one at a time.)

Assay [2] deals with T1, endothelin A receptor (ETaR). As to the kind of experiment: flow cytometry on cells; competition: unlabelled scFv at 0.01 to 316 nM against FITC-labeled wild-type anti-GPCR at L = 150 nM on ETaR-expressing CHO cells, 1 h at 4 °C; Ki = IC50/(1 + L/Kd).
Assay [3] deals with T2, ETaR-GFP (UniProt P25101).
T2 construct: endothelin A receptor (ETaR) with GFP fused to its C-terminus (in cytosol); also called ETaR cells; ETaR-GFP cells; source: CHO cells stably expressing ETaR-GFP (provided by Gmax Biopharm LLC; clone S-33 for vesicles); on cells, and in vesicles prepared from them; not shown: GFP, C-terminal, kept
T2 sequence (P25101 21-427): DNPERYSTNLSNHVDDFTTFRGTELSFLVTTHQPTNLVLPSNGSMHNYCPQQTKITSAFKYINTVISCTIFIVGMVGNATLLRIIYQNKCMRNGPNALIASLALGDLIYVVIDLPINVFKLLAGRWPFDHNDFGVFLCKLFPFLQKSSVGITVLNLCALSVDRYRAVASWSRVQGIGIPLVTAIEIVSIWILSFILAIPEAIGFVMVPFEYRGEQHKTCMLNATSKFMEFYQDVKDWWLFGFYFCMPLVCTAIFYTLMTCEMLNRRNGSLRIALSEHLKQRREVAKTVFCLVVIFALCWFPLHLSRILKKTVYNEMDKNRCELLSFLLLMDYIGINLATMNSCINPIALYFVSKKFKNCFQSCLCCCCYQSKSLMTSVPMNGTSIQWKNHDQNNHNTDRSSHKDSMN
As to the kind of experiment: flow cytometry on cells; cells expressing ETaR-GFP incubated with purified scFv-His for 30 min, then anti-his-PE antibody (Fig. 4b).

In assay [4] the target is T1, endothelin A receptor (ETaR). Nature of the assay: flow cytometry on cells; purified full-length antibodies titrated on ETaR-expressing CHO cells as for scFv; PE-conjugated anti-IgG; Kd from the dose-response curve.
The target is the same in assay [5]. As to the kind of experiment: flow cytometry on cells; competition of unlabelled full-length antibodies, obtained similarly as for scFv; L = 13 nM; Ki = IC50/(1 + L/Kd).
Assay [6] has the same target. Nature of the assay: flow cytometry on cells; Ki of purified scFv-Fc on ETaR-expressing cells; tracer and L not told for this format.
Assay [7] deals with T2, ETaR-GFP. As to the kind of experiment: flow cytometry on cells; cells stably expressing ETaR-GFP incubated with purified full-length or scFv-Fc antibodies for 30 min, then PE-conjugated anti-IgG (Fig. 4c, 4d, 5b).
For assay [8], the target named is T1, endothelin A receptor (ETaR). As to the kind of experiment: flow cytometry on cells; competition of unlabelled full-length antibodies, obtained similarly as for scFv; L = 13 nM; Ki = IC50/(1 + L/Kd). The source holds these as a separate data set.

Substitutions are numbered along the chain they refer to. In names and notes the source's numbering stands.

The results in this text go back to publication PMC6719327 (Applied Microbiology and Biotechnology, 2019).

T1 sequence (P25101 21-427): as above

B1: anti-GPCR (ETaR) antibody 80H4, scFv-His, wild type (scFv, V domains shown)
VH: EVQLLESGGGLVQPGGSLRLSCAASGFTFSSYGMSWVRQAPGKGLEWVSAISTNGATAYYADSVKGRFTISRDNSKNTLYLQMNSLRAEDTAVYYCATEKGAMGYWGQGTLVTVSS
VL: DIVMTQTPLSLSVTPGQPASISCRSSQNIVHSTGNTYLEWYLQKPGQSPQLLIYKVSNRFSGVPDRFSGSGSGTDFTLKISRVEAEDVGVYYCFQGSHFPFTFGQGTKVEIK
notes: heavy-chain variable region of 80H4; (G4S)3 linker; light-chain variable region of 80H4; Order HV-(G4S)3-LV; made with a signal peptide (SP); also called WT; anti-GPCR-scFv-His; source: Expi293F, transfected, purified from supernatant (Ni-NTA); not shown: His tag, C-terminal, kept
Consider B1, for which binding in assay [1] was characterised by a dissociation constant (Kd) of 169 nM. In assay [2], the IC50 – broadly, the midpoint of a concentration-inhibition curve – was 568 nM and the inhibition constant (Ki) – broadly, a measure of affinity in units of concentration, obtained from inhibition or displacement – is 300 nM.

B2: anti-GPCR (ETaR) antibody 80H4, scFv-His, mutant T113A-R38Q (scFv, V domains shown)
VH: B1 VH with R38Q, T113A
VL: B1 VL
notes: heavy-chain variable region as in m3; (G4S)3 linker; light-chain variable region as in m3; also called T113A-R38Q scFv-His; source: Expi293F, transfected, purified from supernatant (Ni-NTA); not shown: His tag, C-terminal, kept
As to B2, in assay [3], the binding result is “binds”.

B3: anti-GPCR (ETaR) antibody 80H4, full-length, mutant D73H (antibody, V domains shown)
VH: B1 VH with D73H
VL: B1 VL
notes: heavy-chain variable region as the heavy chain of m13; heavy-chain constant region as in m13; light-chain variable region as the light chain of m13; light-chain constant region as in m13; source: Expi293F, heavy and light chains co-expressed, purified from supernatant (Protein A); copies: 2 + 2
As for B3, the Kd (in general, the free concentration of one partner at which half of the binding sites on the other are occupied at equilibrium, for simple one-to-one binding) in assay [4] turned out to be 13.6 nM. For the same molecule, in assay [5], the half-maximal inhibitory concentration (IC50) came to 30.6 nM and the Ki amounted to 15.7 nM.

B4: anti-GPCR (ETaR) antibody 80H4, full-length, wild type (antibody, V domains shown)
VH: B1 VH
VL: B1 VL
notes: heavy-chain variable region of 80H4; heavy-chain constant region (HC); labelled by anti-human IgG; light-chain variable region of 80H4; light-chain constant region (LC); also called WT; full-length wild-type antibody; source: Expi293F, heavy and light chains co-expressed, purified from supernatant (Protein A); copies: 2 + 2
The molecule B4 displayed a Kd in assay [4] of 21.5 nM. Further, in assay [5], the concentration for half-maximal inhibition (IC50) is 50.1 nM and the Ki stood at 31.3 nM.

B5: anti-GPCR (ETaR) antibody 80H4, scFv-His, mutant N28Y (scFv, V domains shown)
VH: B1 VH
VL: B1 VL with N28Y
notes: heavy-chain variable region as in m3; (G4S)3 linker; light-chain variable region as in m3; source: Expi293F, transfected, purified from supernatant (Ni-NTA); not shown: His tag, C-terminal, kept
The molecule B5 returned a Kd in assay [1] of 83.5 nM. Further, in assay [2], the IC50 turned out to be 210 nM and the inhibition constant Ki worked out at 75.1 nM.

B6: anti-GPCR (ETaR) antibody 80H4, scFv-His, mutant T113A-V64M (scFv, V domains shown)
VH: B1 VH with V64M, T113A
VL: B1 VL
notes: as for B5
B6 came in with an equilibrium dissociation constant (Kd) in assay [1] of 87 nM. In addition, in assay [2], the IC50 was determined as 227 nM and the Ki came to 83.4 nM.

B7: anti-GPCR (ETaR) antibody 80H4, scFv-His, mutant T113A-V64M-N28Y (scFv, V domains shown)
VH: B1 VH with V64M, T113A
VL: B1 VL with N28Y
notes: heavy-chain variable region as in m3; (G4S)3 linker; light-chain variable region as in m3; Combination of N28Y and T113A-V64M made by the authors; source: Expi293F, transfected, purified from supernatant (Ni-NTA); not shown: His tag, C-terminal, kept
With B7, the Kd in assay [1] came to 22.4 nM. Moreover, in assay [2], the half-inhibitory concentration (IC50) turned out to be 170 nM and the Ki came to 22.1 nM.

B8: anti-GPCR (ETaR) antibody 80H4, full-length, mutant S115N-S30R-D73H (antibody, V domains shown)
VH: B1 VH with S30R, D73H, S115N
VL: B1 VL
notes: heavy-chain variable region as the heavy chain of m13; heavy-chain constant region as in m13; light-chain variable region as the light chain of m13; light-chain constant region as in m13; also called S115N-D73H-S30R; source: Expi293F, heavy and light chains co-expressed, purified from supernatant (Protein A); copies: 2 + 2
B8 had a Kd in assay [4] of 8.27 nM. For the same molecule, in assay [5], the 50% inhibitory concentration (IC50) was 16 nM and the Ki amounted to 6.2 nM.

B9: anti-GPCR (ETaR) antibody 80H4, scFv-Fc, mutant T113A-V64M-N28Y (Fc fusion)
VH: B1 VH with V64M, T113A
VL: B1 VL with N28Y
notes: heavy-chain variable region as in m3; (G4S)3 linker; light-chain variable region as in m3; also called mutant scFv-Fc; source: Expi293F, transfected, purified from supernatant (Protein A); not shown: Fc, C-terminal, kept
With B9, in assay [6], the Ki was 40.2 nM.

B10: anti-GPCR (ETaR) antibody 80H4, full-length, mutant with six mutations (S115N-S30R-D73H combined with T113A-V64M-N28Y) (antibody, V domains shown)
VH: B1 VH with S30R, V64M, D73H, T113A, S115N
VL: B1 VL with N28Y
notes: heavy-chain variable region as the heavy chain of m13; heavy-chain constant region as in m13; light-chain variable region as the light chain of m13; light-chain constant region as in m13; also called the mutant with these six mutations; the full-length antibody clone containing the 6 point mutations; source: Expi293F, heavy and light chains co-expressed, purified from supernatant (Protein A); …
As for B10, the binding result in assay [7] is reported as “binds”.

B11: anti-GPCR (ETaR) antibody 80H4, full-length, mutant T113A-V64M-N28Y (antibody, V domains shown)
VH: B1 VH with V64M, T113A
VL: B1 VL with N28Y
notes: heavy-chain variable region as the heavy chain of m13; heavy-chain constant region as in m13; light-chain variable region as the light chain of m13; light-chain constant region as in m13; also called T113A-V64M-N28Y mutant full-length antibody; source: Expi293F, heavy and light chains co-expressed, purified from supernatant (Protein A); copies: 2 + 2
Regarding B11, in assay [8], the inhibitory constant (Ki) amounted to 15.6 nM.

B12: anti-GPCR (ETaR) antibody 80H4, scFv-His, mutant R38Q (scFv, V domains shown)
VH: B1 VH with R38Q
VL: B1 VL
notes: as for B5
For B12, in assay [3], the binding result is given as “binds”.

B13: anti-GPCR (ETaR) antibody 80H4, full-length, mutant S115N-S30R (antibody, V domains shown)
VH: B1 VH with S30R, S115N
VL: B1 VL
notes: as for B3
For B13, the Kd in assay [4] was 10.8 nM. Besides, in assay [5], the IC50 is 22.4 nM and the inhibition constant (Ki) stood at 10.2 nM.

B14: anti-GPCR (ETaR) antibody 80H4, scFv-Fc, wild type (Fc fusion)
VH: B1 VH
VL: B1 VL
notes: heavy-chain variable region as in m3; (G4S)3 linker; light-chain variable region as in m3; also called wild-type scFv-Fc; anti-GPCR-scFv-Fc; source: Expi293F, transfected, purified from supernatant (Protein A); not shown: Fc, C-terminal, kept
In the case of B14, in assay [6], affinity was put at a Ki of 251 nM.
